The source of these data is the supplement of paper PMC9732359.

± gives the uncertainty stated by the source.

This series in a line: protein stability index of a GFP-peptide fusion (yeast GPS) (PSI 1-4); higher = more stable; sorted into four equal gates, so the index is relative within each strain. In outline:
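Tiled yeast protein peptides of 17 residues were each joined downstream of GFP, on plasmids that also express Cherry. The pooled library was maintained in yeast, and mid-log cultures in leucine-free medium were sorted into four equal gates on the GFP/Cherry ratio. Plasmids from every gate were amplified by PCR and sequenced on Illumina, with barcodes linking reads to strains. The protein stability index of a peptide is its gate-number-weighted read frequency summed over the gates.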

With YPMMHQVRNQVFMLDTK [RGR1], the protein stability index amounted to 2.25 ± 0.08 (doa10∆), 2.35 ± 0.08 (pdr5∆), 2.3 ± 0.081 (san1∆) and 2.75 ± 0.068 (ubr1∆).

Turning to YPNSSKLKRNSDRREHD [LIN1], the protein stability index reads like this: (doa10∆) 3.25 ± 0.083; (pdr5∆) 3.1 ± 0.067; (san1∆) 3.02 ± 0.045; (ubr1∆) 3.03 ± 0.075.

Turning to YQCAMGKQAIGAIAYNQ [RET1], the protein stability index runs as follows: (doa10∆) 2.55 ± 0.053; (pdr5∆) 2.76 ± 0.06; (san1∆) 2.78 ± 0.047; (ubr1∆) 2.65 ± 0.049.

In the case of YQISAYQTRARQKARTD [RPR2], the protein stability index is, setting by setting: (doa10∆) 2.19 ± 0.027; (pdr5∆) 2.31 ± 0.026; (san1∆) 2.36 ± 0.031; (ubr1∆) 2.407 ± 0.023.

Turning to YQLYTSNPSGNYTGWKA [PRE9], the protein stability index is, setting by setting: (doa10∆) 2.9 ± 0.065; (pdr5∆) 3.08 ± 0.065; (san1∆) 3.14 ± 0.055; (ubr1∆) 3.17 ± 0.04.

Turning to YQMQSNYESVFTYNKFL [YIL149C/MLP2], the protein stability index runs as follows: (doa10∆) 1.29 ± 0.043; (pdr5∆) 1.23 ± 0.028; (san1∆) 1.55 ± 0.14; (ubr1∆) 1.5 ± 0.048.

For the sequence YRTPGSSGVLSSNIAGT [SSN2], the protein stability index is, setting by setting: (doa10∆) 3.35 ± 0.12; (pdr5∆) 3.29 ± 0.1; (san1∆) 3.03 ± 0.14; (ubr1∆) 3.38 ± 0.088.

As to YSIPHPSENLLNIRIQT [RPC19], the protein stability index was 2.1 ± 0.098 (doa10∆), 2.21 ± 0.078 (pdr5∆), 2.65 ± 0.12 (san1∆) and 2.38 ± 0.11 (ubr1∆).

As to YSKAAEPHAVSLAWSAD [ASC1], the protein stability index is, setting by setting: (doa10∆) 2.81 ± 0.19; (pdr5∆) 2.87 ± 0.084; (san1∆) 2.8 ± 0.065; (ubr1∆) 2.72 ± 0.078.

Turning to YSKAKYPDLQPFVLAEN [CDC53], the protein stability index is, setting by setting: (doa10∆) 2.3 ± 0.095; (pdr5∆) 2.72 ± 0.063; (san1∆) 2.13 ± 0.07; (ubr1∆) 2.26 ± 0.078.

YSLQPSVDITGGPWFTD [RPC34]: the protein stability index by setting is: (doa10∆) 1.89 ± 0.079; (pdr5∆) 2.54 ± 0.12; (san1∆) 2.86 ± 0.089; (ubr1∆) 2.49 ± 0.064.

On to YSLRLINKEIFHHWLVE [SRB8], for which the protein stability index (doa10∆) was found to be 1.75 ± 0.064, the protein stability index (pdr5∆) was determined as 1.52 ± 0.081, the protein stability index (san1∆) stood at 1.55 ± 0.13 and the protein stability index (ubr1∆) worked out at 1.59 ± 0.068.

Take YSPNTLGHPDNYIPGNP [COB]: the protein stability index is, setting by setting: (doa10∆) 2.52 ± 0.11; (pdr5∆) 2.27 ± 0.088; (san1∆) 2.9 ± 0.064; (ubr1∆) 2.43 ± 0.047.

The sequence YSSAPLRTVKEVQFGLF [RPO21] registered a protein stability index (pdr5∆) of 2.27 ± 0.2.

Take YSTLKELLEYSDDIAEN [YCG1]: the protein stability index came out at 2.81 ± 0.048 (doa10∆), 2.84 ± 0.053 (pdr5∆), 2.74 ± 0.053 (san1∆) and 2.59 ± 0.04 (ubr1∆).

On to YTKKHLSSHSSTNSNSK [RPN4], for which the protein stability index (doa10∆) was determined as 3.37 ± 0.14, the protein stability index (pdr5∆) turned out to be 3.11 ± 0.076, the protein stability index (san1∆) was 2.95 ± 0.055 and the protein stability index (ubr1∆) amounted to 2.95 ± 0.061.

Regarding YTQQQALEYIGAKVKTM [RET1], the protein stability index worked out at 1.97 ± 0.063 (doa10∆), 2.34 ± 0.072 (pdr5∆), 2.25 ± 0.086 (san1∆) and 2.1 ± 0.059 (ubr1∆).

In the case of YTVNVVDVFAMPQSGTG [RPN11], the protein stability index runs as follows: (doa10∆) 3.08 ± 0.088; (pdr5∆) 3.28 ± 0.1; (san1∆) 3.3 ± 0.063; (ubr1∆) 3.07 ± 0.077.

YTYLYVRMLASPMLYKV [BRR2]: the protein stability index (doa10∆) is 1.13 ± 0.12, the protein stability index (pdr5∆) worked out at 1.19 ± 0.21, the protein stability index (san1∆) stood at 1.22 ± 0.21 and the protein stability index (ubr1∆) amounted to 1.26 ± 0.11.

YVDPETTYTYQQPNPLQ [ROX3]: the protein stability index is, setting by setting: (doa10∆) 2.33 ± 0.087; (pdr5∆) 2.31 ± 0.099; (san1∆) 2.02 ± 0.12; (ubr1∆) 2.86 ± 0.12.

With YVMERPKNVPTSKWLNS [YDL116W/NUP84], the protein stability index is 2.61 ± 0.057 (doa10∆), 2.75 ± 0.055 (pdr5∆), 2.63 ± 0.072 (san1∆) and 2.82 ± 0.043 (ubr1∆).

Consider YVNVAISIYNMLPPKSV [SSN2], for which the protein stability index is, setting by setting: (doa10∆) 1.71 ± 0.049; (pdr5∆) 1.82 ± 0.043; (san1∆) 2.01 ± 0.062; (ubr1∆) 2.12 ± 0.029.

Take YWSDKKADTDTLLYEQI [SNF5]: the protein stability index came out at 2.55 ± 0.079 (doa10∆), 2.61 ± 0.069 (pdr5∆), 2.64 ± 0.083 (san1∆) and 2.3 ± 0.049 (ubr1∆).

In the case of YYGLVIDLLLLGQERAT [PRP8], the protein stability index runs as follows: (doa10∆) 1.76 ± 0.083; (pdr5∆) 1.26 ± 0.053; (san1∆) 1.23 ± 0.11; (ubr1∆) 1.38 ± 0.039.

Take YYLWTGKQVFSLLIKPN [RPO31]: the protein stability index reads like this: (doa10∆) 1.53 ± 0.21; (ubr1∆) 1.59 ± 0.2.

Turning to YYSRITLLRLNELLDLT [RPN5], the protein stability index runs as follows: (doa10∆) 2.61 ± 0.067; (pdr5∆) 1.77 ± 0.048; (san1∆) 2.44 ± 0.065; (ubr1∆) 1.97 ± 0.072.

For YYVGQVMRNNESTETGY [DIS3], the protein stability index was determined as 3.21 ± 0.069 (doa10∆), 3.19 ± 0.092 (pdr5∆), 3.18 ± 0.055 (san1∆) and 3.23 ± 0.064 (ubr1∆).
